Test results reported in patent US20050148516.

Test system: heparan sulfate proteoglycan (HSPG) on HUVEC

Row | Substance | amount of FGF-2 released from HSPG on HUVEC (FGF-2 ELISA of the supernatant, 4 °C)
1 | GnT-VΔ73 | GnT-VΔ73 and KRKRKK peptide released FGF-2
2 | GnT-VΔ188 | Like GnT-VΔ73, also GnT-VΔ188 and GnT-VΔ233 released FGF-2
